Patent US20130123201A1, “MODULATION OF CYTOKINE-INDUCED CHRONIC INFLAMMATORY RESPONSES” (UNIVERSITY OF MANITOBA, priority 2010, published 2013)

Molecular target: TNF-receptor-1 (TNF-R1) (human) (UniProt P19438)
Experiment: cell-based or functional assay

TNF-receptor-1 (TNF-R1) (human), sequence (P19438 30-455): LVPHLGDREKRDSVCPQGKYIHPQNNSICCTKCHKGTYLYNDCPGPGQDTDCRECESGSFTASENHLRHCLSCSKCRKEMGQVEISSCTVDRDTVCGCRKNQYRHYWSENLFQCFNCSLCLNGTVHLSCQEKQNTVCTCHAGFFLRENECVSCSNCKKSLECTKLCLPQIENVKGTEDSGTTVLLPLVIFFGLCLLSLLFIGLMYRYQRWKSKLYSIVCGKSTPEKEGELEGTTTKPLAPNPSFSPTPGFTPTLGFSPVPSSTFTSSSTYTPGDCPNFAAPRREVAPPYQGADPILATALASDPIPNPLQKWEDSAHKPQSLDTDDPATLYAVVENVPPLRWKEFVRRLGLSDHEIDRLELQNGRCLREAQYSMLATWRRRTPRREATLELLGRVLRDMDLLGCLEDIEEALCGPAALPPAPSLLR

Relative fold change in phosphorylation of the TNF-R1 S274 array peptide (kinome profiling, THP-1 cells, 20 ng/mL IL-32, 15 min): 4.7 fold
Substance: Recombinant human cytokine IL-32γ (from UniProt P24001 31-234) (ligand)
